Experimental data: PMC4113602
Read-outs that look alike come from different tables or passages of the source.

Key:
[1] = biological target: E-cadherin ECD (Mus musculus) (UniProt P09803); conditions: cited from earlier work
[2] = biological target: E-cadherin ECD (Mus musculus) (UniProt P09803); conditions: cited from earlier work; remark: listed apart in the source
[3] = biological target: W2A E-cadherin/ATH monomer (E-cadherin extracellular domains EC1-EC5, W2A, N20C); assay: FRET or BRET
[4] = biological target: W2A E-cadherin/ATH monomer (E-cadherin extracellular domains EC1-EC5, W2A, N20C); assay: single molecule AFM force measurement
[5] = biological target: W2A E-cadherin/ATH monomer (E-cadherin extracellular domains EC1-EC5, W2A, N20C); assay: cross-linking

FRET efficiency (peak) [3]	bond strength (unbinding force) [4] [pN]	cross-linked dimer yield [5] [%]	Substance	Kd [1] [mM]	Kd [2] [mM]
–	–	–	E-cadherin ECD (from UniProt P09803)	10	0.72
0.74	17	20	W2A E-cadherin/ATH monomer (E-cadherin extracellular domains EC1-EC5, W2A, N20C) (domain or fragment)	–	–
